B2: dehydrodolichyl diphosphate synthase (DHDDS), full-length human (enzyme)
chain: MSWIKEGELSLWERFCANIIKAGPMPKHIAFIMDGNRRYAKKCQVERQEGHSQGFNKLAETLRWCLNLGILEVTVYAFSIENFKRSKSEVDGLMDLARQKFSRLMEEKEKLQKHGVCIRVLGDLHLLPLDLQELIAQAVQATKNYNKCFLNVCFAYTSRHEISNAVREMAWGVEQGLLDPSDISESLLDKCLYTNRSPHPDILIRTSGEVRLSDFLLWQTSHSCLVFQPVLWPEYTFWNLFEAILQFQMNHSVLQKARDMYAEERKRQQLERDQATVTEQLLREGLQASGDAQLRRTRLHKLSARREERVQGFLQALELKRADWLARLGTASA

In data set [1] the target is B2. Description: crystal structure.
The data set “cross-linking” concerns the molecule itself. Description: cross-linking.

B1: sNgBRΔ167*-175* (soluble Nogo-B receptor, residues 73*-293*, loop 167-175 removed) (domain or fragment)
chain: RGGSCLAAAHHRMRWRADGRSLEKLPVHMGLVITEVEQEPSFSDIASLVVWCMAVGISYISVYDHQGIFKRNNSRLMDEILKQQQELLGLDCSKDKDDQVLNCHLAVKVLSPEDGKADIVRAAQDFCQLVAQKQKRPTDLDVDTLASLLSSNGCPDPDLVLKFGPVDSTLGFLPWHIRLTEIVSLPSHLNISYEDFFSALRQYAACEQRLGK
Take B1: the binding result in data set [1] is listed as “binds”. Regarding B2, the binding result in the data set “cross-linking” is “binds”.

The values above are taken from article doi:10.1101/2020.06.02.095570 (bioRxiv, 2020).
